Values of other authors in article PMC4188015.

Tests used:
[1] = molecular target: Human insulin (Homo sapiens) (UniProt P01308); assay: ITC
[2] = molecular target: insulin receptor isoform A (Homo sapiens) (UniProt P06213)
[3] = molecular target: insulin receptor site 1 (Homo sapiens) (UniProt P06213)
[4] = molecular target: insulin receptor site 2 (Homo sapiens) (UniProt P06213)

For Human insulin (from UniProt P01308), the Kd [1] is given as 8810 nM.
For IGF-II (from UniProt P01344), the Kd [2] is given as 4 nM.
In the case of insulin (from UniProt P01308), the Kd [3] is listed as 6.4 nM and the Kd [4] is listed as 400 nM.
